Data published in IntAct's records for PubMed 31515488.

B1: Four and a half LIM domains protein 5 (Homo sapiens), Q5TD97 (parent)
chain: MTTAHFYCQYCTASLLGKKYVLKDDSPYCVTCYDRVFSNYCEECKKPIESDSKDLCYKDRHWHEGCFKCTKCNHSLVEKPFAAKDERLLCTECYSNECSSKCFHCKRTIMPGSRKMEFKGNYWHETCFVCENCRQPIGTKPLISKESGNYCVPCFEKEFAHYCNFCKKVITSGGITFCDQLWHKECFLCSGCRKDLCEEQFMSRDDYPFCVDCYNHLYANKCVACSKPISGLTGAKFICFQDSQWHSECFNCGKCSVSLVGKGFLTQNKEIFCQKCGSGMDTDI
partner: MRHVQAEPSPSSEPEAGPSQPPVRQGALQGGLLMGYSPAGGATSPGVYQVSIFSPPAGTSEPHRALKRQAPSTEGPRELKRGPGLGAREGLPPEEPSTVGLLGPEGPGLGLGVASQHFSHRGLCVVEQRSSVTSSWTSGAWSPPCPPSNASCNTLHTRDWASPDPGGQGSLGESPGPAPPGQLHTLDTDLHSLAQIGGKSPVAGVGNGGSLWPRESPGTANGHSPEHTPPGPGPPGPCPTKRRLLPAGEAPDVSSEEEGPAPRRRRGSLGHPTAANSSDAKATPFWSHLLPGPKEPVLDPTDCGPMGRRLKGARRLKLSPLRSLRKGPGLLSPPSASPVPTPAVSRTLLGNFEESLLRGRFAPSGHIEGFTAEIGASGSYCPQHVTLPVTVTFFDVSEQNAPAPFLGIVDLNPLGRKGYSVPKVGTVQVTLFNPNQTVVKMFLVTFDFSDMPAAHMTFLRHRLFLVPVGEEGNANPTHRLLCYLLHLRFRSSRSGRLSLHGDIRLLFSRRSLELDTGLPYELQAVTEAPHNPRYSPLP
B2: Grancalcin (Homo sapiens), P28676 (parent)
chain: MAYPGYGGGFGNFSIQVPGMQMGQPVPETGPAILLDGYSGPAYSDTYSSAGDSVYTYFSAVAGQDGEVDAEELQRCLTQSGINGTYSPFSLETCRIMIAMLDRDHTGKMGFNAFKELWAALNAWKENFMTVDQDGSGTVEHHELRQAIGLMGYRLSPQTLTTIVKRYSKNGRIFFDDYVACCVKLRALTDFFRKRDHLQQGSANFIYDDFLQGTMAI
partner: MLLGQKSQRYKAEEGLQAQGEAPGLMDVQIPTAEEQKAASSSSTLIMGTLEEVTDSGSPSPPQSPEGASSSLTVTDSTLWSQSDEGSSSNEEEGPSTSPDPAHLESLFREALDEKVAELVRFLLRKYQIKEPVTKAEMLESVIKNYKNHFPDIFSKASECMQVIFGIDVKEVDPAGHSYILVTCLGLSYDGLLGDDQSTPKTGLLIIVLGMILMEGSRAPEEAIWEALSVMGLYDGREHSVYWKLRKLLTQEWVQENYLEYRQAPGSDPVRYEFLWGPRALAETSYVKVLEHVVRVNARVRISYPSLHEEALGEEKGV
B3: Ubiquitin-conjugating enzyme E2 E3 (Homo sapiens), Q969T4 (parent)
chain: MSSDRQRSDDESPSTSSGSSDADQRDPAAPEPEEQEERKPSATQQKKNTKLSSKTTAKLSTSAKRIQKELAEITLDPPPNCSAGPKGDNIYEWRSTILGPPGSVYEGGVFFLDITFSSDYPFKPPKVTFRTRIYHCNINSQGVICLDILKDNWSPALTISKVLLSICSLLTDCNPADPLVGSIATQYLTNRAEHDRIARQWTKRYAT
B4: Rho guanine nucleotide exchange factor 3 (Homo sapiens), Q9NR81 (parent)
chain: MVAKDYPFYLTVKRANCSLELPPASGPAKDAEEPSNKRVKPLSRVTSLANLIPPVKATPLKRFSQTLQRSISFRSESRPDILAPRPWSRNAAPSSTKRRDSKLWSETFDVCVNQMLTSKEIKRQEAIFELSQGEEDLIEDLKLAKKAYHDPMLKLSIMTEQELNQIFGTLDSLIPLHEELLSQLRDVRKPDGSTEHVGPILVGWLPCLSSYDSYCSNQVAAKALLDHKKQDHRVQDFLQRCLESPFSRKLDLWNFLDIPRSRLVKYPLLLREILRHTPNDNPDQQHLEEAINIIQGIVAEINTKTGESECRYYKERLLYLEEGQKDSLIDSSRVLCCHGELKNNRGVKLHVFLFQEVLVITRAVTHNEQLCYQLYRQPIPVKDLLLEDLQDGEVRLGGSLRGAFSNNERIKNFFRVSFKNGSQSQTHSLQANDTFNKQQWLNCIRQAKETVLCAAGQAGVLDSEGSFLNPTTGSRELQGETKLEQMDQSDSESDCSMDTSEVSLDCERMEQTDSSCGNSRHGESNV
partner: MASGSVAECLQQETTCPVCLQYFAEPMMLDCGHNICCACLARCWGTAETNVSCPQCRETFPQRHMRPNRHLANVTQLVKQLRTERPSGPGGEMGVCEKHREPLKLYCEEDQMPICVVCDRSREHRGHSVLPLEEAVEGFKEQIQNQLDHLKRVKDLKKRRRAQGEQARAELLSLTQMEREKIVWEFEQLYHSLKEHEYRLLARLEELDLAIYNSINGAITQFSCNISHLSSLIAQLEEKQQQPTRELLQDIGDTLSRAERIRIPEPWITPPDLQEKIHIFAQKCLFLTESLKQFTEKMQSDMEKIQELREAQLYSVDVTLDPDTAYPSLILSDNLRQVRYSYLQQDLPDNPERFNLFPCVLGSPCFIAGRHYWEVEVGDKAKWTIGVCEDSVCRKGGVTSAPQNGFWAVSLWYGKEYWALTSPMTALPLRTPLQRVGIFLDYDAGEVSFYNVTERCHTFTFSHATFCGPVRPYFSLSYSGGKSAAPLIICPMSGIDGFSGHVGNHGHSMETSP

Variants of: B1
Details: with atosb_human ATOSB

Variant | effect of a mutation on the interaction
MTTAHFYCQYCTASLLGKKYVLKDDSPYCVTCYDRVFSNYCEECKKPIESDSKDLCYKDWHWHEGCFKCTKCNHSLVEKPFAAKDERLLCTECYSNECSSKCFHCKRTIMPGSRKMEFKGNYWHETCFVCENCRQPIGTKPLISKESGNYCVPCFEKEFAHYCNFCKKVITSGGITFCDQLWHKECFLCSGCRKDLCEEQFMSRDDYPFCVDCYNHLYANKCVACSKPISGLTGAKFICFQDSQWHSECFNCGKCSVSLVGKGFLTQNKEIFCQKCGSGMDTDI [R60W] | with no effect
MTTAHFYCQYCTASLLGKKYVLKDDSPYCVTCYDRVFSNYCEECKKPIESDSKDLCYKDRHWHEGCFKCTKCNHSLVEKPFAAKDERLLCTECYSNECSSKCFHCKRTIMPGSRKMEFKGNYWHETCFVCENCRQPIGTKPLISKESGNYCVPCFEKEFAHYCNFCKKVITSGGITFCDQLWHKECFLCSGCRKDLCEEQFMSGDDYPFCVDCYNHLYANKCVACSKPISGLTGAKFICFQDSQWHSECFNCGKCSVSLVGKGFLTQNKEIFCQKCGSGMDTDI [R204G] | with no effect
MTTAHFYCQYCTASLLGKKYVLKYDSPYCVTCYDRVFSNYCEECKKPIESDSKDLCYKDRHWHEGCFKCTKCNHSLVEKPFAAKDERLLCTECYSNECSSKCFHCKRTIMPGSRKMEFKGNYWHETCFVCENCRQPIGTKPLISKESGNYCVPCFEKEFAHYCNFCKKVITSGGITFCDQLWHKECFLCSGCRKDLCEEQFMSRDDYPFCVDCYNHLYANKCVACSKPISGLTGAKFICFQDSQWHSECFNCGKCSVSLVGKGFLTQNKEIFCQKCGSGMDTDI [D24Y] | with no effect
MTTAHFYCQYCTASLLGKKYVLKDDSPYCVTCYDRVFSNYCEECKKPIESDSKDLCYKDRHWHEGCFKCTKCNHSLVEKPFAAKDERLLCTECYSNECSSKCFHCKRTIMPGSRKMEFKGNYWHETCFVCENCRQPIGTKPLISKESGNYCVPCFEKEFAHYCNFCKKVITSGGITFCDQLWHKECFLCSGCRKDLCEEQFLSRDDYPFCVDCYNHLYANKCVACSKPISGLTGAKFICFQDSQWHSECFNCGKCSVSLVGKGFLTQNKEIFCQKCGSGMDTDI [M202L] | with no effect

Variants of: B2
Details: with maga8_human MAGEA8, P43361

Variant | effect of a mutation on the interaction
MAYPGYGGGFGNFSIQVPGMQMGQPVPETGPAILLDGYSGPAYSDTYSSAGDSVYTYFSAVAGQDGEVDAEELQRCLTQAGINGTYSPFSLETCRIMIAMLDRDHTGKMGFNAFKELWAALNAWKENFMTVDQDGSGTVEHHELRQAIGLMGYRLSPQTLTTIVKRYSKNGRIFFDDYVACCVKLRALTDFFRKRDHLQQGSANFIYDDFLQGTMAI [S80A] | disrupting interaction strength
MAYPGYGGGFGNFSIQVPGMQMGQPVPETGPAILLDGYSGPAYSDTYSSAGDSVYTYFSAVAGQDGEVDAEELQRCLTQSGINGTYSPFSLETCRIMIAMLDRDHTGKMGFNAFRELWAALNAWKENFMTVDQDGSGTVEHHELRQAIGLMGYRLSPQTLTTIVKRYSKNGRIFFDDYVACCVKLRALTDFFRKRDHLQQGSANFIYDDFLQGTMAI [K115R] | disrupting interaction strength

Variants of: B3
Details: with rnf5_human RNF5, Q99942
Sequence of rnf5_human RNF5, Q99942 (Q99942 whole entry): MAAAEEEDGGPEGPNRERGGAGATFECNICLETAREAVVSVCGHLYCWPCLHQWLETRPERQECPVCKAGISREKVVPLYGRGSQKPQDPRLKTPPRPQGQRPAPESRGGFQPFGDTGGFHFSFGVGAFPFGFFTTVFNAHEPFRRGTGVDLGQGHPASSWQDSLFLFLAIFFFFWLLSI

Variant | effect of a mutation on the interaction
S117T | with no effect

Variants of: B4
Details: with tri27_human TRIM27, P14373

Variant | effect of a mutation on the interaction
MVAKDYPFYLTVKRANCSLELPPASGPAKDAEEPSNKRVKPLSRVTSLANLIPPVKATPLKRFSQTLQRSISFRSESRPDILAPRPWSRNAAPSSTKRRDSKLWSETFDVCVNQMLTSKEIKRQEAIFELSQGEEDLIEDLKLAKKAYHDPMLKLSIMTEQELNQIFGTLDSLIPLHEELLSQLRDVRKPDGSTEHVGPILVGWLPCLSSYDSYCSNQVAAKALLDHKKQDHRVQDFLQRCLESPFSRKLDLWNFLDIPRSRLVKYPLLLREILRHTPNDNPDQQHLEEAINIIQGIVAEINTKTGESECRYYKERLLYLEEGQKDSLIDSSRVLCCHGELKNNRGVKLHVFLFQEVLVITRAVTHNEQLCYQLYRQPIPVKDLLLEDLQDGEVRLGGSLRGAFSNNERIKNFFRVSFKNGSQSQTHSLQASDTFNKQQWLNCIRQAKETVLCAAGQAGVLDSEGSFLNPTTGSRELQGETKLEQMDQSDSESDCSMDTSEVSLDCERMEQTDSSCGNSRHGESNV [N432S] | with no effect
